Assay results from patent US20120231014A1.

Assays:
[1] = target: PTPσ-Fc fusion protein (recombinant mouse PTPσ extracellular domain, short isoform, fused to Fc) (mouse) (UniProt B0V2N1); assay: cell-free plate assay: PTPσ-Fc on protein A plates, increasing Ncn-AP, bound AP activity, Scatchard analysis
[2] = target: PTPσ-Fc fusion protein (recombinant mouse PTPσ extracellular domain, short isoform, fused to Fc) (mouse) (UniProt B0V2N1); assay: cell-free plate assay: PTPσ-Fc on protein A plates, biotinylated aggrecan detected with streptavidin-AP, hyperbolic curve fit

Question: With “Ncn-AP fusion protein (mouse neurocan amino acids 1-963 fused to placental alkaline phosphatase) (from UniProt P55066 23-963; P05187 23-511)” as the substance, how does the Kd [1] read?
Answer: 11 nM

Question: “biotinylated purified aggrecan (bovine; Sigma) (from UniProt P13608 17-2364)” was tested. Which Kd [2] did it give?
Answer: 19 nM
